Test results from the supplement of paper PMC9170038.

Test system: MS2 coat protein
Test: apparent KD of MS2 coat protein; designed switch direction (-1 OFF switch, 1 ON switch): -1; higher = weaker reporter binding
How it was run: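 Designed RNA switches were transcribed on Illumina chips by stalled E. coli RNA polymerase and titrated with SNAP-549-labelled MS2 coat protein from 0.7 or 1.5 nM, doubling to 3 µM. Step length ran from 0.8–1.5 h at the lowest concentration to 10–20 min at the highest. The apparent KD is the median over clusters for each design, from curve-fitted normalised cluster fluorescence.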

[1] = input ligand: microRNA oligo, concentration not stated
[2] = Eterna round: R95, input ligand: microRNA oligo, concentration not stated
[3] = Eterna round: R95, input ligand: FMN 200 uM
[4] = Eterna round: R95, input ligand: none

Sequence: GUAAACGAUCAGGAUAUAUCAAAUCAUAGCUUGAUAGAAGGGAUCACAUGAGGAUCACCCAUGUGAUCUUCUUA [Mat - Exclusion 6 - JL Mod - D36] (Eterna round: R97, puzzle: Exclusion 6)
- apparent KD of MS2 coat protein (input ligand: FMN 200 uM): 13 nM
- apparent KD of MS2 coat protein (input ligand: none): 10.9 nM

Sequence: GUAAAGGGUGUCCUUAAAACAUGAGGAUCACCCAUGUGGACUAAGGAUAUCCAAAAUAAAGAUAAGGAGAAGGUAGUGGAAAGA [Usarqudi] (Eterna round: R96, puzzle: Exclusion NG 3)
- apparent KD of MS2 coat protein (input ligand: FMN 200 uM): 19.3 nM
- apparent KD of MS2 coat protein [1]: 19.9 nM
- apparent KD of MS2 coat protein (input ligand: none): 14 nM

Sequence: GUAAAGUGAGGAUAUGCUGGAGGUGUAUUCUACGUGUCGAAACAUGAGGAUCACCCAUGUAGAAGGCACGGGCG [Sozaquce] (puzzle: Exclusion 2)
- apparent KD of MS2 coat protein [2]: 10 nM

Sequence: GUAACAUGCUGGUGAUCAUACAUGAGGAUCACCCAUGUAACAAGCUUUUUGUUCGUCUUAUAAGAUCACCAGCAUGU [Stov1/9-B2] (Eterna round: R97, puzzle: Sensor, turn-off variant 1)
- apparent KD of MS2 coat protein (input ligand: FMN 200 uM): 18.4 nM
- apparent KD of MS2 coat protein (input ligand: none): 19.8 nM

Sequence: GUAAUUAAUGUAGGAUAUGCAAGGCGAACCUAAGCAGAAGGACAUGAGGAUCACCCAUGUAAUGCGGUCUGCGUACAGAUCGCU [salish99_ExNG1_r4_007] (Eterna round: R96, puzzle: Exclusion NG 1)
- apparent KD of MS2 coat protein (input ligand: FMN 200 uM): 47.8 nM
- apparent KD of MS2 coat protein [1]: 13.2 nM
- apparent KD of MS2 coat protein (input ligand: none): 24.2 nM

Sequence: GUAAUUAAUGUAGGAUAUGCAAGGCGAACCUAAGCAGAAGGACAUGAGGAUCACCCAUGUAUUGCGGUCUGCGUUCAGUUCGCU [salish99_ExNG1_r4_011] (Eterna round: R96, puzzle: Exclusion NG 1)
- apparent KD of MS2 coat protein (input ligand: FMN 200 uM): 9.41 nM
- apparent KD of MS2 coat protein [1]: 6.39 nM
- apparent KD of MS2 coat protein (input ligand: none): 10.2 nM

Sequence: GUACAGGUAGGAUAUCGAUACAAGAACAUGAGGAUCACCCAUGUGGGUCGAUUUUCGAAGCGAGAAGGACCAAAUG [Rixeatenso] (puzzle: Exclusion 5)
- apparent KD of MS2 coat protein [3]: 406 nM
- apparent KD of MS2 coat protein [2]: 132 nM
- apparent KD of MS2 coat protein [4]: 145 nM

Sequence: GUAGAGUAAGGAUAUGGAGAAUAGGAUAGAAUGGUUAGAAUCUAGAAGGUACAUGAGGAUCACCCAUGUAAUGU [Excluse me!!!! 9 - Jieux - Exclusion 4] (puzzle: Exclusion 4)
- apparent KD of MS2 coat protein [2]: 21.2 nM

Sequence: GUAGAGUCAGGAUAUACAAGAUCGAAAGAUCGAAGAUUUAUACAUGAGGAUCACCCAUGUAGAAGGGACUCUAC [ChP 11-04-2015 #4] (puzzle: Exclusion 2)
- apparent KD of MS2 coat protein [2]: 12.4 nM

Sequence: GUAGAGUCAGGAUAUACAGAAAGUGGCUGGAAAACAGUGGCACAUGAGGAUCACCCAUGUAGAAGGGACUCUAC [ChP 11-04-2015 #1] (puzzle: Exclusion 2)
- apparent KD of MS2 coat protein [2]: 84.3 nM

Sequence: GUAGAGUCAGGAUAUACGAGAUCGAUAGAUCGGCGAUCCAAACAUGAGGAUCACCCAUGUAGAAGGGACUCUAC [Mat - Exclusion 2 - Eli Mod - D4] (Eterna round: R97, puzzle: Exclusion 2)
- apparent KD of MS2 coat protein (input ligand: FMN 200 uM): 1160 nM
- apparent KD of MS2 coat protein (input ligand: none): 41.6 nM

Sequence: GUAGGGUCAGGAUAUACUGGCUGAGGGAUGUAUUGUAGUUGGUAGAAGGGACAUGAGGAUCACCCAUGUAAGUA [JR_Exclu4_Sub057] (puzzle: Exclusion 4)
- apparent KD of MS2 coat protein [2]: 33.2 nM

Sequence: GUAGUGACUCGAGGAUAUCCCGACUCCUGGUCAGGAGAAGGCGACGUCAUAGCACAUGAGGAUCACCCAUGUCUUACACAUACG [Eternabot solution 32] (Eterna round: R96, puzzle: Exclusion NG 1)
- apparent KD of MS2 coat protein (input ligand: FMN 200 uM): 25.6 nM
- apparent KD of MS2 coat protein [1]: 19.5 nM
- apparent KD of MS2 coat protein (input ligand: none): 23.9 nM

Sequence: GUAUGUGAGAGAGGAUAUCGUGUACAAAGUACACGAGAAGGCUUCACAUGAGGAUCACCCAUGUACCGAGGUGAAACACCUUGA [Omei Exc(NG)1 Bv9] (Eterna round: R96, puzzle: Exclusion NG 1)
- apparent KD of MS2 coat protein (input ligand: FMN 200 uM): 1870 nM
- apparent KD of MS2 coat protein [1]: 298 nM
- apparent KD of MS2 coat protein (input ligand: none): 423 nM

Sequence: GUAUGUUAUGAGGAUAUCGGUGAACAUACACAUCGAGAAGGCAUGACAUGAGGAUCACCCAUGUCAAGGAUGAC [Exclusion 6 - B - 18:d] (puzzle: Exclusion 6)
- apparent KD of MS2 coat protein [2]: 24.9 nM

Sequence: GUCAAACAUGAGGAUCACCCAUGUGAGGAUAUUUAGGAUAGGAUAUGACUACUACUCCGAAGAAGGCACUCGGG [Eternabot (L1) Solution 7] (Eterna round: R97, puzzle: Exclusion 1)
- apparent KD of MS2 coat protein (input ligand: FMN 200 uM): 102 nM
- apparent KD of MS2 coat protein (input ligand: none): 38.5 nM

Sequence: GUCACAUGGACAUAGGAUCACAUGAGGAUCACCCAUGUGACUAACAAGCUUUUUGUUCGUCUUAUGUCUAUGUGAAA [Stov1/16-B1] (Eterna round: R97, puzzle: Sensor, turn-off variant 1)
- apparent KD of MS2 coat protein (input ligand: FMN 200 uM): 13.5 nM
- apparent KD of MS2 coat protein (input ligand: none): 11.6 nM

Sequence: GUCACUAGAGGAUAUACAAUGGUAUAUGAUCCUAGAGACAAACAUGAGGAUCACCCAUGUAGAAGGCUAGUAAU [Exclusion 2 - 3] (puzzle: Exclusion 2)
- apparent KD of MS2 coat protein [3]: 23.8 nM
- apparent KD of MS2 coat protein [2]: 178 nM
- apparent KD of MS2 coat protein [4]: 123 nM

Sequence: GUCAGACGAGGAUAUGAUGUCAAAGACAUGAGGAUCACCCAUGUGAUCAAUUAAUUAAGAUCAGAAGGCGUCUGAC [E5/2-A3] (Eterna round: R97, puzzle: Exclusion 5)
- apparent KD of MS2 coat protein (input ligand: FMN 200 uM): 172 nM
- apparent KD of MS2 coat protein (input ligand: none): 222 nM

Sequence: GUCAGCUCGUCAGGAUAUGCACAUGAGGAUCACCCAUGUAAGAUCAAGCUGCUUCGGCAGCAAGUGCAGAAGGGACGAGCUGAC [ENG2/9-B1] (Eterna round: R96, puzzle: Exclusion NG 2)
- apparent KD of MS2 coat protein (input ligand: FMN 200 uM): 161 nM
- apparent KD of MS2 coat protein [1]: 229 nM
- apparent KD of MS2 coat protein (input ligand: none): 140 nM

Sequence: GUCAGCUCGUGAGGAUAUACAUGAGGAUCACCCAUGUGAUCAAUAGCAGCUUCGGCUGCAAUAAUGUAGAAGGCACGAGCUGAC [ENG2/8-C] (Eterna round: R96, puzzle: Exclusion NG 2)
- apparent KD of MS2 coat protein (input ligand: FMN 200 uM): 60.5 nM
- apparent KD of MS2 coat protein [1]: 76.2 nM
- apparent KD of MS2 coat protein (input ligand: none): 144 nM

Sequence: GUCAGCUCGUGAGGAUAUACAUGAGGAUCACCCAUGUGAUCAAUAGCAGCUUCGGCUGCAUUAAUGUAGAAGGCACGAGCUGAC [ENG2/5-A1] (Eterna round: R96, puzzle: Exclusion NG 2)
- apparent KD of MS2 coat protein (input ligand: FMN 200 uM): 61.8 nM
- apparent KD of MS2 coat protein [1]: 22.2 nM
- apparent KD of MS2 coat protein (input ligand: none): 152 nM

Sequence: GUCAGCUCGUGAGGAUAUACAUGAGGAUCACCCAUGUGAUCAAUAGCAGCUUCGGCUGCAUUAAUGUAGAAGGUACGAGCUGAC [ENG2/5-C1] (Eterna round: R96, puzzle: Exclusion NG 2)
- apparent KD of MS2 coat protein (input ligand: FMN 200 uM): 65.2 nM
- apparent KD of MS2 coat protein [1]: 111 nM
- apparent KD of MS2 coat protein (input ligand: none): 700 nM

Sequence: GUCAGCUCGUGAGGAUAUAUAUAUACAUGAGGAUCACCCAUGUUAGAUCAGCUUCGGCAGUAUAUAUAGAAGGCACGAGCUGAC [ENG2/15-A1] (Eterna round: R96, puzzle: Exclusion NG 2)
- apparent KD of MS2 coat protein (input ligand: FMN 200 uM): 345 nM
- apparent KD of MS2 coat protein [1]: 78.9 nM
- apparent KD of MS2 coat protein (input ligand: none): 87.6 nM

Sequence: GUCAGUAUAUAACAAGCAUACAUGAGGAUCACCCAUGUGCGCGGAAAGCGUUUCCGCGCAUAUCGUUCCUAGCUCGG [Eternabot (Original) Solution 14] (Eterna round: R97, puzzle: Sensor, turn-off variant 1)
- apparent KD of MS2 coat protein (input ligand: FMN 200 uM): 419 nM
- apparent KD of MS2 coat protein (input ligand: none): 505 nM

Sequence: GUCAUCAAACAUGGGAUAAACAUGAGGAUCACCCAUGUAUACAAGUUUUUUGCUCGUCUUAUAAUAAGUUUGAUGAC [Antenna 6 - Jieux - Sensor, turn-off variant 1] (Eterna round: R97, puzzle: Sensor, turn-off variant 1)
- apparent KD of MS2 coat protein (input ligand: FMN 200 uM): 16.4 nM
- apparent KD of MS2 coat protein (input ligand: none): 15.3 nM

Sequence: GUCAUCAAACAUGGGAUCAACAUGAGGAUCACCCAUGUUGACAAGUUUUUUGCUCGUCUUAUAAUACGUUUGAUGAC [Mod-Jx] (Eterna round: R97, puzzle: Sensor, turn-off variant 1)
- apparent KD of MS2 coat protein (input ligand: FMN 200 uM): 16.2 nM
- apparent KD of MS2 coat protein (input ligand: none): 15.5 nM

Sequence: GUCCGGCGUGUAGGAUAUGGUUCCGUUUCGGUUCCAGAAGGACAUGAGGAUCACCCAUGUGCCUGUCGUCGGUCGUCACCGGGC [salish99_ExNG1_r04_220] (Eterna round: R96, puzzle: Exclusion NG 1)
- apparent KD of MS2 coat protein (input ligand: FMN 200 uM): 19.5 nM
- apparent KD of MS2 coat protein [1]: 10.3 nM
- apparent KD of MS2 coat protein (input ligand: none): 14.8 nM

Sequence: GUCGGGCGUGUCAGGAUAUGGUAGAGUGGUCGCGGCCAGAAGGGACAUGAGGAUCACCCAUGUUCCGUGGGCAG [BmEX4 C.11] (Eterna round: R97, puzzle: Brourd's mod of Exclusion 4)
- apparent KD of MS2 coat protein (input ligand: FMN 200 uM): 19 nM
- apparent KD of MS2 coat protein (input ligand: none): 19.9 nM

Sequence: GUCGUACAUGAGGAUCACCCAUGUGAGGAUAUGAGUGGUGCUGCUAGGUAGUAUAGACUCAGAAGGCGCAUGAU [Malcxlusion 2 - Jieux - Exclusion 1] (Eterna round: R97, puzzle: Exclusion 1)
- apparent KD of MS2 coat protein (input ligand: FMN 200 uM): 250 nM
- apparent KD of MS2 coat protein (input ligand: none): 91.5 nM

Sequence: GUCGUGAGACAGGAUAUCCAAUCUAAACACGAGGGAGAAGGGUCUACAUGAGGAUCACCCAUGUGGUCUCAAAA [Aonondiin] (puzzle: Exclusion 6)
- apparent KD of MS2 coat protein [2]: 17.2 nM
